Measurements published in patent US20250262210A1 (TRUSTEES OF COLUMBIA UNIVERSITY IN THE CITY OF NEW YORK, published 2025).

Tests used:
SLC4A2 = target: T1, SLC4A2 (human, UniProt P04920 1-1241, limits assumed); assay: IP/MS, LZTR1 wild type-FLAG, U87
T1 sequence (looked up): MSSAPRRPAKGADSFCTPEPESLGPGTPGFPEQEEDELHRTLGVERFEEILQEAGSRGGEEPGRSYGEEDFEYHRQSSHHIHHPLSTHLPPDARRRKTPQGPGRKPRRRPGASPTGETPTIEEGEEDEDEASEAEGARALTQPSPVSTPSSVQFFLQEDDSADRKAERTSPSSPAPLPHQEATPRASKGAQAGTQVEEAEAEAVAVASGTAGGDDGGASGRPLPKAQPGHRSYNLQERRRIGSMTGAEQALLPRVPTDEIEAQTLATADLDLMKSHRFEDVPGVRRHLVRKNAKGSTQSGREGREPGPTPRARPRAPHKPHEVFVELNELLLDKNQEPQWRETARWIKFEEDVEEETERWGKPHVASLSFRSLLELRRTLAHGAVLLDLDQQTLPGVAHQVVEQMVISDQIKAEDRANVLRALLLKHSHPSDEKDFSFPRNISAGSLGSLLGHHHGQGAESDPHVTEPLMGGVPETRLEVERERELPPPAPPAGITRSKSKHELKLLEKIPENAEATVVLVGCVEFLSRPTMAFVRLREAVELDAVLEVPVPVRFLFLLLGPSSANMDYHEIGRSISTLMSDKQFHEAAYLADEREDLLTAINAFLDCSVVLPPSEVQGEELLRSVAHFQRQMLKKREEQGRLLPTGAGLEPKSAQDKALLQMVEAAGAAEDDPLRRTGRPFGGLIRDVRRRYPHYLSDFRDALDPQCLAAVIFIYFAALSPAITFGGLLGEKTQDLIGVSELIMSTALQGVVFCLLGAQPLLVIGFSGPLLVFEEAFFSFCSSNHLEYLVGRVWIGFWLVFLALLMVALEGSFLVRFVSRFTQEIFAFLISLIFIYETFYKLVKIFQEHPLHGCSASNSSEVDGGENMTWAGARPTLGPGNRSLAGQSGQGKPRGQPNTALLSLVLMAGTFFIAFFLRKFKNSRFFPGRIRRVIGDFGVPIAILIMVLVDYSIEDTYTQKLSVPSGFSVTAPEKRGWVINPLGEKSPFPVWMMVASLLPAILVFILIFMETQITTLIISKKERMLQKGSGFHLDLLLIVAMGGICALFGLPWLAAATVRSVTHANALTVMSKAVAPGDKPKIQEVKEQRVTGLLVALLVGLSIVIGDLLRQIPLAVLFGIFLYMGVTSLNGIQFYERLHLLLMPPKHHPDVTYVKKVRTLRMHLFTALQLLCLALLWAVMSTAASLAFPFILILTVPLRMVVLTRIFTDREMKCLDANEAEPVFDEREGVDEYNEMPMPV
Summary of the method: (§1)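 Gel slices were reduced with 5 mM DTT, alkylated with 11 mM IAA and digested overnight at 37° C. with trypsin. Peptides were analysed on an Orbitrap Fusion Tribrid by LC-MS/MS.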

EPG5 = EPG5 (human, UniProt Q9HCE0 1-2579, limits assumed); assay: IP/MS, LZTR1 wild type-FLAG, U87
Summary of the method: as §1

Chain of EPG5 (Q9HCE0 whole entry): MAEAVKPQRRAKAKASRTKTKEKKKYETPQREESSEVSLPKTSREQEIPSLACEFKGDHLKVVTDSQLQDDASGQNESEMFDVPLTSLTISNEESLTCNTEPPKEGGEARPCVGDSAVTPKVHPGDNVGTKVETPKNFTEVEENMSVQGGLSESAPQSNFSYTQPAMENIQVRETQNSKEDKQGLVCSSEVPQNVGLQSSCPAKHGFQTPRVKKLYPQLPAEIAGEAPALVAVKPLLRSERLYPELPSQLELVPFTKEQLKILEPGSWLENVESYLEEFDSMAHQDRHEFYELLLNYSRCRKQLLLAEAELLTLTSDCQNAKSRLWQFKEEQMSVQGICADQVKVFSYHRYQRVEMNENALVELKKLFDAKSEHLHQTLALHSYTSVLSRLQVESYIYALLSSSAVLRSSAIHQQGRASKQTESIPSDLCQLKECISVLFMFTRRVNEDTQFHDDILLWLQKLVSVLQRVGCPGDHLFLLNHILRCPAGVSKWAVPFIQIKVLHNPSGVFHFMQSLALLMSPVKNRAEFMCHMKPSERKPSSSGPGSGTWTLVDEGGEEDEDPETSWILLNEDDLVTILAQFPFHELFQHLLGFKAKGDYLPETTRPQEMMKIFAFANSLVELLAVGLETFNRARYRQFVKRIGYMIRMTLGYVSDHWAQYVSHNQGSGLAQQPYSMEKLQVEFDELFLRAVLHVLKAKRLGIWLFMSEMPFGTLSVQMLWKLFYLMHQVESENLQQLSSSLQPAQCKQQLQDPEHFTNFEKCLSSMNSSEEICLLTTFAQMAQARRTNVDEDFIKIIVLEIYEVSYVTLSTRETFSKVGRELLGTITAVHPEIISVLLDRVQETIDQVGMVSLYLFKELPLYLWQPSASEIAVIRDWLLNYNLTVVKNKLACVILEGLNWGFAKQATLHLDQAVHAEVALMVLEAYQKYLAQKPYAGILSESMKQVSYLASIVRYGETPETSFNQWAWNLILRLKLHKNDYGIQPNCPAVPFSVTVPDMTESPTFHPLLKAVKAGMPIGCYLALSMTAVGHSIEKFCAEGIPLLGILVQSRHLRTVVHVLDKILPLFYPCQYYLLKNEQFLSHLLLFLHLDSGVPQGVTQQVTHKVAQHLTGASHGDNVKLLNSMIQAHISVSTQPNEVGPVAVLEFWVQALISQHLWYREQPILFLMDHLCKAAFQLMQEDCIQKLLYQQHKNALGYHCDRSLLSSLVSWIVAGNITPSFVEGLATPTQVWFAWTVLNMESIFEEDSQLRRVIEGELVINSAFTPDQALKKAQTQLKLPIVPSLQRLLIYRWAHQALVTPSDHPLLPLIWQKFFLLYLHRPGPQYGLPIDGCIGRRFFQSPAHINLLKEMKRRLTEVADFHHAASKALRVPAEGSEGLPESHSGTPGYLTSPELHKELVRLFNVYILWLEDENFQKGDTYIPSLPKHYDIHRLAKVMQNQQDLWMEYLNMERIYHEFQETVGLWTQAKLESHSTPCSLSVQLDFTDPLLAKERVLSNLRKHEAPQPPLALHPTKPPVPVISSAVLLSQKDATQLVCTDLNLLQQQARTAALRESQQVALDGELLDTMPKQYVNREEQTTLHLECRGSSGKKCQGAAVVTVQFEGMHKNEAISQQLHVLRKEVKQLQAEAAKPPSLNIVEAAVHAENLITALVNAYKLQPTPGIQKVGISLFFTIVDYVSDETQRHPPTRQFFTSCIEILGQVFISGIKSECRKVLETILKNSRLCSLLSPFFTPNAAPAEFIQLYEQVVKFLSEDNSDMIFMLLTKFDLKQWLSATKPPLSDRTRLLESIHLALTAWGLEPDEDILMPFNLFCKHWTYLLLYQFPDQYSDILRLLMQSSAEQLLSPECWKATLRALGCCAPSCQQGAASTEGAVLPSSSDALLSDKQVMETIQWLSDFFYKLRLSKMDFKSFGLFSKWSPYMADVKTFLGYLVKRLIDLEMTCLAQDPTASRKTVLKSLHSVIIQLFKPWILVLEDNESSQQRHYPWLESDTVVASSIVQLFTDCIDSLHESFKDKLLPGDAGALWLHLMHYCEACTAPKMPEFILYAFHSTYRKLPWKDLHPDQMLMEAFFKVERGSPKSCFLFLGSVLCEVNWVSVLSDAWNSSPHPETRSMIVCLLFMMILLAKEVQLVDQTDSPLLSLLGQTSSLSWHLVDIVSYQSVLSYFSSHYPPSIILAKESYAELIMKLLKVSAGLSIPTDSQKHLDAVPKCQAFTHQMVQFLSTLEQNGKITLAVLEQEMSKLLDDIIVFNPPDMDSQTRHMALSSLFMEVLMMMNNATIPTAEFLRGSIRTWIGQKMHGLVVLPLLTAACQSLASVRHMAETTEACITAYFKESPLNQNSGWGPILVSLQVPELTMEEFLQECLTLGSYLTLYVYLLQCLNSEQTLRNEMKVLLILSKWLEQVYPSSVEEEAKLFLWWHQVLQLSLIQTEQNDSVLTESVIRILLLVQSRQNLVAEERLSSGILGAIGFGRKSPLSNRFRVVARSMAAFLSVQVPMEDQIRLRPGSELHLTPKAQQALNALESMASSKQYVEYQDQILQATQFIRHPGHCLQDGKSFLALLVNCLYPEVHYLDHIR

- binding result (SLC4A2): binds
- binding result (EPG5): binds
B1: LZTR1-FLAG (other, human, UniProt Q8N653 1-840, looked up)
chain: MAGPGSTGGQIGAAALAGGARSKVAPSVDFDHSCSDSVEYLTLNFGPFETVHRWRRLPPCDEFVGARRSKHTVVAYKDAIYVFGGDNGKTMLNDLLRFDVKDCSWCRAFTTGTPPAPRYHHSAVVYGSSMFVFGGYTGDIYSNSNLKNKNDLFEYKFATGQWTEWKIEGRLPVARSAHGATVYSDKLWIFAGYDGNARLNDMWTIGLQDRELTCWEEVAQSGEIPPSCCNFPVAVCRDKMFVFSGQSGAKITNNLFQFEFKDKTWTRIPTEHLLRGSPPPPQRRYGHTMVAFDRHLYVFGGAADNTLPNELHCYDVDFQTWEVVQPSSDSEVGGAEVPERACASEEVPTLTYEERVGFKKSRDVFGLDFGTTSAKQPTQPASELPSGRLFHAAAVISDAMYIFGGTVDNNIRSGEMYRFQFSCYPKCTLHEDYGRLWESRQFCDVEFVLGEKEECVQGHVAIVTARSRWLRRKITQARERLAQKLEQEAAPVPREAPGVAAGGARPPLLHVAIREAEARPFEVLMQFLYTDKIKYPRKGHVEDVLLIMDVYKLALSFQLCRLEQLCRQYIEASVDLQNVLVVCESAARLQLSQLKEHCLNFVVKESHFNQVIMMKEFERLSSPLIVEIVRRKQQPPPRTPLDQPVDIGTSLIQDMKAYLEGAGAEFCDITLLLDGHPRPAHKAILAARSSYFEAMFRSFMPEDGQVNISIGEMVPSRQAFESMLRYIYYGEVNMPPEDSLYLFAAPYYYGFYNNRLQAYCKQNLEMNVTVQNVLQILEAADKTQALDMKRHCLHIIVHQFTKVSKLPTLRSLSQQLLLDIIDSLASHISDKQCAELGADI
notes: Expressed in HEK 293T, HeLa or U87 cells; used as cell lysate; also called LZTR1 wild type-FLAG; LZTR1 WT; not shown: FLAG tag at the C-terminus
